Assay results published in patent CN114573694A (SHENZHEN HUAJI BIOTECHNOLOGY CO LTD; UNIV SHANGHAI TRAFFIC, dated 2022).
Where a chain is given by its changes, count along the chain named. Each block holds one binder with its values, some of them ahead of it.

How the values were obtained:
[1] = target: T1, IL13Rα2 deletion mutant D1-1c (15 residues …, 57-71, deleted) (human, UniProt Q14627 27-343); test: Western blot
T1 construct: also called 突变的IL13Rα2蛋白的D1-1c
T1 sequence: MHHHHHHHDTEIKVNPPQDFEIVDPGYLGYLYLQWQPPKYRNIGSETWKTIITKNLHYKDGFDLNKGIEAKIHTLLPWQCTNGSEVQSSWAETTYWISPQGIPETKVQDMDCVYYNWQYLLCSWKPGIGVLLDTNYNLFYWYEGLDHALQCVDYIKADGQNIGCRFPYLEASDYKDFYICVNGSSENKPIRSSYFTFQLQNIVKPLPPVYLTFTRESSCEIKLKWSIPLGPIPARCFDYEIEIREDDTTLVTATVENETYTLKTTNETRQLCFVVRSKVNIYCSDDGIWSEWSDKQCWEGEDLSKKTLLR

[2] = target: T2, IL13Rα2 glycine-scan mutant EP1 (human, UniProt Q14627 27-343, limits assumed); test: Western blot, glycine scan mutants
T2 chain: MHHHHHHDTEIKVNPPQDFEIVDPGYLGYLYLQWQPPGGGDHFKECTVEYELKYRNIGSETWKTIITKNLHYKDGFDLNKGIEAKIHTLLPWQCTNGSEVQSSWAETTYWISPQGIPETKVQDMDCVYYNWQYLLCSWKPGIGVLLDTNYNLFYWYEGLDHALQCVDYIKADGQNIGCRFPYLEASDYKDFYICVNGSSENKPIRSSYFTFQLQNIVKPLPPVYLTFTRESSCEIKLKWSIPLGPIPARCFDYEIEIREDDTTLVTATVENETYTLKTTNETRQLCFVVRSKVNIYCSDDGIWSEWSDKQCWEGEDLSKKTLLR

[3] = target: T3, IL13Rα2 glycine-scan mutant EP2 (human, UniProt Q14627 27-343); test: Western blot, glycine scan mutants
T3 construct: The changed residues (60-62) are inferred in the same way as for EP1
T3 chain: T2 chain with G38L, G39S, G40L, D41G, H42G, F43G

[4] = target: T4, IL13Rα2 glycine-scan mutant EP3 (human, UniProt Q14627 27-343); test: Western blot, glycine scan mutants
T4 construct: The changed residues (63-65) are inferred in the same way as for EP1
T4 chain: T2 chain with G38L, G39S, G40L, K44G, E45G, C46G

[5] = target: T5, IL13Rα2 expressed in lung cancer cells A549 and H460 (fixed, permeabilised cells) (UniProt Q14627 27-380, limits assumed); test: immunofluorescence on fixed, permeabilised cells
T5 construct: whole, on cells; A549 and H460 are human lung cancer lines; also called A549和H460细胞中的IL13Rα2
T5 sequence (looked up): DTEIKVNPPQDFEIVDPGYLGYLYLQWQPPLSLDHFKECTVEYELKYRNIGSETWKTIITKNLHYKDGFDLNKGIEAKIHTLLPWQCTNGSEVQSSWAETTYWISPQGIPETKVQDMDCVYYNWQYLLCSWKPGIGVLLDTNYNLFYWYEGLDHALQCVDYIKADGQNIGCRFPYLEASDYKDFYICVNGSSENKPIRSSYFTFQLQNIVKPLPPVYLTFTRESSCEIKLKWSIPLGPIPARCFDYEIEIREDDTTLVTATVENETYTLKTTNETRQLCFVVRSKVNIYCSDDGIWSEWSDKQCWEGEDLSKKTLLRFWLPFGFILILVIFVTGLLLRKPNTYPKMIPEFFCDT

[6] = target: T6, IL13Rα2 antigen with His tag, expressed from pMAL in E. coli (IL13Rα2-HIS) (human) (UniProt Q14627); test: indirect ELISA, antigen coated at 3 μg/ml, serial dilutions of the antibody
T6 sequence: T2 chain with G38L, G39S, G40L

[7] = target: T7, IL13Rα2 antigen with His tag, expressed from pMAL in E. coli (IL13Rα2-HIS) (human, UniProt Q14627 27-343); test: Western blot (Fig. 24)
T7 construct: Purified on Ni-NTA; also called IL13Rα2抗原; pMAL-IL13Rα2
T7 sequence: T2 chain with G38L, G39S, G40L

binding result [1]: no binding
binding result [2]: no binding
binding result [3]: no binding
binding result [4]: no binding
binding result [5]: binds
效价 (titer) (fold dilution) [6]: > 10000
B1: anti-IL13Rα2 monoclonal antibody mAb15D8 (mouse, from hybridoma) (antibody, mouse IgG1, kappa, V domains shown)
VH: QVTLKESGPGILQPSQTLSLTCSFSGFSLSPSGMGVSWIRQPSGKGLEWLAHIYWDDDKLYNPSLKSRLTISKDTSSNQVFLKITSVDTADTATYYCARRGLRLRAMDYWGQGTSVTVSS
VL: DIVLTQSPASLAVSLGQRATISCRASESVDSYGNSFMHWYQQKPGQPPKLLIYRTSNLESGIPARFSGSGSRTDFTLTINPVEADDVATYYCQQSNEDPFTFGSGTKLEIKR
notes: Purified on Protein G; also called m15D8; 单克隆抗体15D8

binding result [7]: binds
B2: recombinantly expressed monoclonal antibody mAb15D8 (293F cells transiently transfected with p15D8MusE) (antibody, mouse IgG1, kappa, V domains shown)
VH: B1 VH
VL: B1 VL
notes: also called 重组表达单克隆抗体mAb15D8; 重组表达抗体
